These results are taken from patent publication US20240285757A1 (University of Pennsylvania, published 2024).

Experiment [1] has as its target human CD19 on Nalm6 leukemia cells (human) (UniProt P15391). Description: cell-based or functional assay.
For experiment [2], the target named is EGFR on U87 (U87-MG) human glioblastoma cells (human, UniProt P00533 25-1210). Description: cell-based or functional assay.

human CD19 on Nalm6 leukemia cells (human), sequence (P15391 20-556): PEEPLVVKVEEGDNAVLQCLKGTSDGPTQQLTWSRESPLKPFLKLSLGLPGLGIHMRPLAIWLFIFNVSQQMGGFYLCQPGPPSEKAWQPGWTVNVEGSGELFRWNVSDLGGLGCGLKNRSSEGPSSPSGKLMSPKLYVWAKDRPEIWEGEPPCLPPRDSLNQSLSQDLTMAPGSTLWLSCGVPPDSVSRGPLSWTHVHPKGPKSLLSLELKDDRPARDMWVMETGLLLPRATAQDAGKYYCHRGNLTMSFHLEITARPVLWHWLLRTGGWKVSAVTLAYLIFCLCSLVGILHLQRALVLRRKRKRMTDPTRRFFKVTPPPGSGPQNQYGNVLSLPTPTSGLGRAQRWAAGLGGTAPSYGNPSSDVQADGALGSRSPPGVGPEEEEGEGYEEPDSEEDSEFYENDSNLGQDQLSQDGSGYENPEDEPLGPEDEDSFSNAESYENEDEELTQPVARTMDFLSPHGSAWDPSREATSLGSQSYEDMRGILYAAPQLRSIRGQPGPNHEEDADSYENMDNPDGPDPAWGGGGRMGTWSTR

In experiment [1], “CD19-specific, 4-1BBZ CAR containing the FMC63 scFv” had a CpNA functional activity in supernatant after 24 h co-culture at 10:1 E:T (cleavage-activated fluorescent NA substrate) of 4.9 fold and a CpNA functional activity in supernatant after 24 h co-culture with Nalm6 cells at 10:1 E:T of 19.5 mU/ml.

B1: 806 CAR (EGFR-specific, 4-1BBZ CAR containing an 806 scFv linked via a CD8alpha hinge and CD8a TM to (other)
VH: DVQLQESGPSLVKPSQSLSLTCTVTGYSITSDFAWNWIRQFPGNKLEWMGYISYSGNTRYNPSLKSRISITRDTSKNQFFLQLNSVTIEDTATYYCVTAGRGFPYWGQGTLVTVSA
VL: DILMTQSPSSMSVSLGDTVSITCHSSQDINSNIGWLQQRPGKSFKGLIYHGTNLDDEVPSRFSGSGSGADYSLTISSLESEDFADYYCVQYAQFPWTFGGGTKLEIKR
B1: in experiment [2], the “CpNA levels/activity in supernatant after 24 h co-culture at 10:1 E:T (cleavage-activated fluorescent NA substrate)” value is 2.3 fold.
